Results from patent publication US20150147316A1 (Seagen, published 2015).
Positions count from the first letter of the chain named.

B1: c2H12 (antibody, V domains shown)
VH: QVQLQQSGPELVRPGTFVKISCKASGYTFTNYDINWVNQRPGQGLEWIGWIYPGDGSTKYNEKFKAKATLTADKSSSTAYLQLNNLTSENSAVYFCASGYEDAMDYWGQGTSVTVSS
VL: DIKMTQSPSSMYASLGERVIINCKASQDINSYLSWFQQKPGKSPKTLIYRANRLVDGVPSRFSGSGSGQDYSLTISSLEYEDMGIYYCLQYDEFPLTFGAGTKLELK
notes: also called chimeric 2H12
B2: cHLA (antibody, V domains shown)
VH: B1 VH
VL: DIQMTQSPSSLSASVGDRVTITCKASQDINSYLSWFQQKPGKAPKSLIYRANRLVDGVPSRFSGSGSGTDFTLTISSLQPEDFATYYCLQYDEFPLTFGGGTKVEIK
notes: Hybrid of the chimeric heavy chain (murine VH, human constant region) and humanized light chain LA
B3: cHLB (antibody, V domains shown)
VH: B1 VH
VL: B2 VL with Q3K
notes: Hybrid of the chimeric heavy chain (murine VH, human constant region) and humanized light chain LB
B4: cHLC (antibody, V domains shown)
VH: B1 VH
VL: B2 VL with S46T
notes: Hybrid of the chimeric heavy chain (murine VH, human constant region) and humanized light chain LC
B5: cHLD (antibody, V domains shown)
VH: B1 VH
VL: B2 VL with T69Q
notes: Hybrid of the chimeric heavy chain (murine VH, human constant region) and humanized light chain LD
B6: cHLE (antibody, V domains shown)
VH: B1 VH
VL: B2 VL with F71Y
notes: Hybrid of the chimeric heavy chain (murine VH, human constant region) and humanized light chain LE
B7: cHLF (antibody, V domains shown)
VH: B1 VH
VL: B2 VL with T20I, T22N
notes: Hybrid of the chimeric heavy chain (murine VH, human constant region) and humanized light chain LF
B8: cHLG (antibody, V domains shown)
VH: B1 VH
VL: B2 VL with T22N, S46T, T69Q, F71Y
notes: Hybrid of the chimeric heavy chain (murine VH, human constant region) and humanized light chain LG
B9: HCcL (antibody, V domains shown)
VH: QVQLVQSGAEVKKPGASVKVSCKASGYTFTNYDINWVRQAPGQGLEWMGWIYPGDGSTKYNEKFKARVTMTTDTSTSTAYMELRSLRSDDTAVYYCASGYEDAMDYWGQGTTVTVSS
VL: B1 VL
notes: Hybrid of humanized heavy chain HC and the chimeric light chain (murine VL, human constant region)
B10: HIcL (antibody, V domains shown)
VH: B9 VH with M48I, R67K, V68A, M70L, T72A
VL: B1 VL
notes: Hybrid of humanized heavy chain HI and the chimeric light chain (murine VL, human constant region)
B11: HILE (antibody, V domains shown)
VH: B9 VH with M48I, R67K, V68A, M70L, T72A
VL: B2 VL with F71Y
notes: Humanized antibody, heavy chain HI with light chain LE
B12: HCLA (antibody, V domains shown)
VH: B9 VH
VL: B2 VL
notes: Humanized antibody, heavy chain HC with light chain LA
B13: HCLE (antibody, V domains shown)
VH: B9 VH
VL: B2 VL with F71Y
notes: Humanized antibody, heavy chain HC with light chain LE
B14: HCLG (antibody, V domains shown)
VH: B9 VH
VL: B2 VL with T22N, S46T, T69Q, F71Y
notes: Humanized antibody, heavy chain HC with light chain LG
B15: HILA (antibody, V domains shown)
VH: B9 VH with M48I, R67K, V68A, M70L, T72A
VL: B2 VL
notes: Humanized antibody, heavy chain HI with light chain LA

These binders were tested against T1, human CD33 (human, UniProt P20138 18-364) (assay: flow cytometry on HEL 92.1.7 AML cells; competition with 1 nM AlexaFluor-647 m2H12 (methods paragraph 148)).
T1 construct: Endogenous on HL-60 and HEL 92.1.7 AML cells, or recombinant on transfected HEK293F cells; The signal peptide is stated as amino acids 1-17; also called hCD33
Protocol: (§1) Cells were centrifuged, washed 3 times with PBS, and resuspended in 125 μL of a PBS+1% BSA solution. Fluorescence was analyzed using a flow cytometer, and the percent of saturated fluorescent signal was used to determine percent labeled 2H12 mAb bound. The EC50 was extrapolated by fitting the data to a sigmoidal dose-response curve with variable slope.
(§2) Humanized heavy and light chains were paired with chimeric light and heavy chains (chimeric chains composed of murine variable regions and human constant regions) respectively. The humanized/chimeric hybrid variants of CD33 mAb were tested for binding to human CD33 expressed on the surface of HEL 92.1.7 AML cells (Table 5). Heavy chains HC and HI were selected for further study. Humanized antibodies were expressed representing permutations of humanized heavy chains HC and HI and humanized light chains LA, LE and LG and binding to cells expressing human or cynomolgus (cyno) CD33 was determined (Table 6). The HILG antibody (2H12 HILG) was selected as the humanized antibody that most closely resembled the binding characteristics of the murine CD33 mAb m2H12. The HILG antibody is referred to as the h2H12 antibody ([…] 2H12 antibody). The KD for m2H12, h2H12, and h2H12 with an S239C mutation (EU numbering) in the IgG1 heavy chain (referred to as h2H12EC, for engineered cysteine), was determined for human CD33 expressed as an endogenous protein in two AML cell lines or as a recombinant protein in a HEK293F cell line. The KD for these antibodies was also determined for cyno CD33 expressed as a recombinant protein in a HEK293F cell line (Table 7).

T1 sequence (P20138 18-364): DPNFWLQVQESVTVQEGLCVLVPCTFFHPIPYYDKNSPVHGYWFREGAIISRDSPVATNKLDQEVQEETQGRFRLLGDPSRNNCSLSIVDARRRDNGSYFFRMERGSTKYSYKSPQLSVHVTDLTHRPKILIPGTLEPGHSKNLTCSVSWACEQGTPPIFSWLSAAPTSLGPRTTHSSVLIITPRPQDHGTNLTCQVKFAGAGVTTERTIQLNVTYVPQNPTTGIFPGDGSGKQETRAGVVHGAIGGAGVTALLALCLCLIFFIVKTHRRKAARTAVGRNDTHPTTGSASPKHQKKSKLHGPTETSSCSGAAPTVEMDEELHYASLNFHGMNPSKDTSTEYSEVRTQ

B1 and B2 are within 1.5-fold of each other in EC50: 1.97 nM for the first, 2.61 nM for the second.

B3 and B4 are within 1.5-fold of each other in EC50: 2.53 nM for the first, 2.49 nM for the second.

B5 and B6 are within 1.5-fold of each other in EC50: 2.48 nM for the first, 1.95 nM for the second.

B7 and B8 are within 1.5-fold of each other in EC50: 2.02 nM for the first, 1.91 nM for the second.

B9 and B10 are within 1.5-fold of each other in EC50: 2.95 nM for the first, 2.56 nM for the second.

What follows are binders tested against T1, human CD33 (assay: flow cytometry on HEL 92.1.7 cells; competition with 1 nM AlexaFluor-647 m2H12 (methods paragraph 148)).
Protocol: as §1, §2

B11 and B12 are within 1.5-fold of each other in EC50: 11.1 nM for the first, 13.6 nM for the second.

First: B13
Second: B14
The EC50 of the first is 1.6-fold higher: 12.8 nM for the first, 7.9 nM for the second. The second is the more potent here.

B15 showed an EC50 of 12.2 nM.

Each binder was assayed against T2, cynomolgus CD33 (cynomolgus) (assay: flow cytometry on HEK293F cells expressing cyno CD33; competition with 1 nM AlexaFluor-647 m2H12 (methods paragraph 148)).
T2 construct: Recombinant on transfected HEK293F cells; also called cyno CD33; cynoCD33
Protocol: as §1, §2

T2 sequence (chain, as listed by the source limits assumed): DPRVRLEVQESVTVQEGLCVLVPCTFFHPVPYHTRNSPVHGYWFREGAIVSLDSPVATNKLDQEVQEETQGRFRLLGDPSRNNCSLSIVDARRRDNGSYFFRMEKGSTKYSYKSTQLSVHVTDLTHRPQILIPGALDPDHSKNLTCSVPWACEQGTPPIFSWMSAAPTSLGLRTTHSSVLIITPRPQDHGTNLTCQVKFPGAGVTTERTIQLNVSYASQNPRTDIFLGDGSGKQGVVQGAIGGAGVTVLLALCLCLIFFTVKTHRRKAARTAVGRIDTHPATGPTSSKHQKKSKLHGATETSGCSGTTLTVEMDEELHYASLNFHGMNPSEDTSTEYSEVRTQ

Going from B11 to B12, the EC50 rises from 64.8 nM to 141 nM (2.2-fold).

Compared with B13, B14 is 2-fold lower in EC50: 129 nM for the first, 63 nM for the second. The second is the more potent here.

B15 gave an EC50 of 126 nM.

The binders below were run against T1, human CD33 (assay: flow cytometry on HEK293F cells expressing human CD33; competition with 1 nM AlexaFluor-647 m2H12 (methods paragraph 148)).
Protocol: as §1, §2

Going from B11 to B12, the EC50 rises from 19.3 nM to 31.7 nM (1.6-fold). The first is the more potent here.

B13 and B14 are within 1.5-fold of each other in EC50: 22.2 nM for the first, 17.9 nM for the second.

B15 showed an EC50 of 26.8 nM.
